Measurements reported in patent publication US20220227882A1 (TRUSTEES OF TUFTS COLLEGE, published 2022).

T1: A462S (Homo sapiens, UniProt P78325)
T1 construct: expressed on HEK293 cells; also called human ADAM8 point mutant A462S
T1 sequence (ADAM8, looked up): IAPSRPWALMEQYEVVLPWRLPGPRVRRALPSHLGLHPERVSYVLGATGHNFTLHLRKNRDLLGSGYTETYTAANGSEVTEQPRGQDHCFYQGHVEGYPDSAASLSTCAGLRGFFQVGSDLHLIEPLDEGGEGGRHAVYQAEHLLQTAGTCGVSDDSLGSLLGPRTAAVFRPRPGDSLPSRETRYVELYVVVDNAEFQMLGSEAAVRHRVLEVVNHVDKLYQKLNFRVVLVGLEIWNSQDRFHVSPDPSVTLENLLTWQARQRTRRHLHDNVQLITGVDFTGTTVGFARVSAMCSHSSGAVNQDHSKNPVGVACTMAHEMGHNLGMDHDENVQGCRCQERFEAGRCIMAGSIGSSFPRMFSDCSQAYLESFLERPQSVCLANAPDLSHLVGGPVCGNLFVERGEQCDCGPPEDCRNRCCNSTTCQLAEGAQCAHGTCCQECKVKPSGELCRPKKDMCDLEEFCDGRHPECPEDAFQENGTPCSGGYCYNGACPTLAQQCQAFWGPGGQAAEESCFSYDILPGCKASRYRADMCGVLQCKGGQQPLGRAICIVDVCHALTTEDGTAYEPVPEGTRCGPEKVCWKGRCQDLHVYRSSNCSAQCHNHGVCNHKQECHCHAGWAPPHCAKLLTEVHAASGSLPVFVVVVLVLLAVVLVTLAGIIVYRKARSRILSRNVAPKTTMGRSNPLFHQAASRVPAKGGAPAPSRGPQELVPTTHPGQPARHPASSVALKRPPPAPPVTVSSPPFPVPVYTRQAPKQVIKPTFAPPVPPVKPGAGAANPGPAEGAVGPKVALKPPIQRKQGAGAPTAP

T2: G445A (Homo sapiens, UniProt P78325)
T2 construct: expressed on HEK293 cells; also called human ADAM8 point mutant G445A
T2 sequence (ADAM8, looked up): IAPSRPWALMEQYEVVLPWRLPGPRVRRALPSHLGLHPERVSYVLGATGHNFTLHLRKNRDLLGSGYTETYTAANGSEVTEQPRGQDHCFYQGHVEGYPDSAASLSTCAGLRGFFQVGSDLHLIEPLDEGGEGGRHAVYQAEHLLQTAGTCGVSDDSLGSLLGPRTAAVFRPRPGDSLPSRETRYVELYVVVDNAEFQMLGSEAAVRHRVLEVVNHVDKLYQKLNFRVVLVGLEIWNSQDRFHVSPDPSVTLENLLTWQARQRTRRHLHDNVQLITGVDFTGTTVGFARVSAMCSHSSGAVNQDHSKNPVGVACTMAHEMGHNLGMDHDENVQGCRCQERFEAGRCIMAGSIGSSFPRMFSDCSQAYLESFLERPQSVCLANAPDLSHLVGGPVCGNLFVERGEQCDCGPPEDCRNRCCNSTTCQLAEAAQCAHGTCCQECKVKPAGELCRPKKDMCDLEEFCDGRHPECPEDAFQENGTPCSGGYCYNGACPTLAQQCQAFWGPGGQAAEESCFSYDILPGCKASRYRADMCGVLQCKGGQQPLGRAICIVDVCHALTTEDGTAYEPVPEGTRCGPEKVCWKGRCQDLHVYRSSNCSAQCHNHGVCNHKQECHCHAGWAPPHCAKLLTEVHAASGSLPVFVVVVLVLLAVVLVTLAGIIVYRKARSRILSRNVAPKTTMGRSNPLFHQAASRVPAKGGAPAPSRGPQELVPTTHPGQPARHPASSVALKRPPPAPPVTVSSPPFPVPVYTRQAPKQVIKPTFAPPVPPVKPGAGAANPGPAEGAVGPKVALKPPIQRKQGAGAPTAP

B1: ADP13 Fab (Fab, V domains shown)
VH: EVQLQQSGPEMVKPGTSVKISCKASGYTFTDYYINWVKQSHGKSLEWIGDISPNIGGATYNPKFKGKAILTVDKSARTAYMELRSLTSEDSAVYCCTRGGSSYPYFYAMDYWGQGTSVTVSS
VL: DIVMSQSPSSLAVSVGEKVTMSCKSSQSLLYSSNQKKYLAWYQQKPGQSPKLLIYWASTRESGVPDRFTGSGSGTDFTLTISSVKAEDLAVYYCQQFYSYPYTFGGGTKLEINR
B2: ADP2 Fab (Fab, V domains shown)
VH: EVKLVESGGGLVQPGGSLSLSCAASGFSFPDYYMSWVRQPPGKALEWLGFIRDSANGYTTEYIASVKGRFTFSRDNSQSILYLQMNALRAEDSATYYCARYSRYYGMDYWGQGTSVTVSS
VL: SIVMTQTPKILLVSAGDRVTITCKASQTVNYDVAWYQQKPGQSPKPVIYFASNRYTGVPDRFTGSGFGTDFTFTISTVQAEDLAVYFCQQDYSAPWTFGGGTKLEIK

Tests used:
A462S = target: T1, A462S; experiment: high-throughput flow cytometry, HEK293 cells with mutant ADAM8, high stringency; range in parentheses; dotted box
Description: (§1) A variety of experimental parameters were optimized for high-throughput flow cytometry including blocking buffer, and primary and secondary antibody concentrations, to identify the optimal conditions for screening. Through these studies ADP2 and ADP13 were determined to be high affinity binding antibodies.
(§2) Thus, for these studies antigen-binding fragments (Fabs) of ADP2 and ADP13, which bind with lower affinity than the full antibody, were generated. In addition, higher binding stringency conditions were tested, such as increased pH, salinity, and temperature, and/or increased washing, to weaken binding sufficiently to allow identification of critical binding residues in flow cytometry. The final experimental flow cytometry conditions were: primary antibody incubation with ADP2 Fab (0.50 μg/ml), ADP13 Fab (5.00 μg/ml) and Control Ab (0.16 μg/ml) for 60 minutes in flow cytometry buffer containing 10% goat serum in PBS (Ca²⁺ and Mg²⁺ free). […] Samples were washed three times after primary antibody incubation and twice after secondary antibody incubation with PBS (Ca²⁺ and Mg′ free). Next, HEK293 cells expressing WT or mutated ADAM8 proteins or EV DNA were incubated with ADP2 or ADP13 Fabs or Control Ab at their optimal concentrations. Fab binding was detected using Alexa Fluor 488-conjugated secondary antibodies and mean cellular fluorescence determined using the Intellicyt iQue flow cytometry platform. […] This counter-screen strategy facilitates the exclusion of mutants that are locally misfolded or that have an expression defect. Binding of each test Fab to each mutant clone in the alanine scanning library was determined, in duplicate, by high-throughput flow cytometry.

G445A = target: T2, G445A; experiment: as above
Description: as §1, §2

Binder | Binding Reactivity (% WT) (A462S) | Binding Reactivity (% WT) (G445A)
B1 | 24.7 | 
B2 |  | 30.7
